Source: the DeepSol protein solubility set

Assay: soluble on expression in E. coli; label from the status in PepcDB or PDB records
For “MGSDKIHHHHHHMKKYQRLAEQIREQIASGVWQPGDRLPSLREQVASSGMSFMTVGHAYQLLESQGRIIARPQSGYYVAPHPVCRSVATAAHVIRDEAVDINTYIFEMLQASRDTSVVPFASAFPDPRLFPLPQLNRSLAQVSKTATAMSVIENLPPGNAELRYAIARRYAQQGITVSPDEIVITAGALEALNLSLQAVTAPGDWVVVENPCFYGALQALERLRLKALSIPTDVKEGIDLMALEQALQEYPVKACWLMTNSQNPLGFTLSAEKKARLVALLTHHNVTLIEDDVYSELYFGREKPLPAKAWDRDDTVLHCSSFSKCLVPGFRIGWVAGGSHARQIQRLQLMSTLSTSSPMQLALVDYLSTRRYDAHLRRLRRQLAERKQQAWQTLLRHLPAEVKIHHNDSGYFLWLELPEQLDAGELSAKALEHLISIAPGKMFSTSGAWTRFFRFNTAWHWGEREEQAVKQLGSLIREMLSAKSLV”, the “soluble on expression in E. coli” value was “not soluble”. With “MAHHHHHHMENEALKEQEGEENKRILVLHKRYREGPFENRLRFECELEFVQSLSNIDYIKHLYENKYFSDKRFLNYLKYLNYWRTKPYIFYIHFPICLYVLEILNDGKIDEYFSKESSFNNFVYYLKLHWLFYSYQI” the “soluble on expression in E. coli” value was “not soluble”. In the case of “GMKTIDLADIQAFLYRESRLLDDKAWDAWLDCYRADAVFWMPSWDDADALVTDPQREISLIYYPNRQGLEDRVFRIKTERSSATVPDTRTSHNIANVERESADGDVHTVRFNWHTLSYRYKTVSSYFGMSRYAIDFSGDAPKIVSKYVVLKNDYINQLIDIYHI”, the “soluble on expression in E. coli” value is reported as “soluble”. In the case of “MGSDKIHHHHHHAITVEENPNMMYMLVGSYATPEEEGIKVYNFDEQNGNSQYISGIKGISNPSFLIPSADGERIYAVGEDSGKSSTANAIKFDKEQKKLTLLNSQPTDGGAPCYITLSPSEKFVLTANYIGGSITVFPLDKDGKLKSETRLISFTGNSLDKERQTQPHLHCIEFTPDHKYLLASDLGTDQIHVFPVSENVTDGVSHSLLNESEEFNIKVESGSGPRHICFHPNQKFAYLINEISGKVIAFSYDKGKLNAIQYIEADTVGAKGSGDIHISPDGKFLYASNRLKADGIAIFSINQEEGTLTKTGYQLTGIHPRNFIISRNGRYLLVACRDSNSIQVFERDSQTGLLKDTGKTIKTNKPVCLKFTF”, the “soluble on expression in E. coli” value is reported as “not soluble”. For “MGLIFAKLWSLFCNQEHKVIIVGLDNAGKTTILYQFLMNEVVHTSPTIGSNVEEIVVKNTHFLMWDIGGQESLRSSWNTYYSNTEFIILVVDSIDRERLAITKEELYRMLAHEDLRKAAVLIFANKQDMKGCMTAAEISKYLTLSSIKDHPWHIQSCCALTGEGLCQGLEWMTSRIGVR”, the “soluble on expression in E. coli” value was “soluble”. For “MGSDKIHHHHHHARRNSTSRGSDSAARSPPSIRASHLKHCCFPIKEPTMSTINYSEKIPNNVNLADDRTLQRALEQWQPNFLSWWGDMGPDGSHGYDVYLRTAVSVDAGGWAHFDHVKMPDYRWGIFLTPGEQDRKIQFGEHKGEAAWQDVPGEHRANLRRIIVTQGDTEPASVEQQRHLGLTAPSMYDLRNLFQVNVEEGRHLWAMVYLLHRYFGRDGREEAEALLGRRSGDDDNPRILGAFNEKTPDWLAFYMFTYFTDRDGKFQLSALAESGFDPLARTTKFMLTEEAHHMFVGESGVSRVVQRTAQVMNELKTDDVNQIRAAGVIDLPTIQRYLNFHYSVTIDLFGADHSSNAATFYSSGLKGRYEETKRDDDHQLGGQSYKLLDVQDGKLVEREVPMLNAMNEVLRDDYIKDSVAGVNRWNKVLEKAGIEFRLTVPHKAFNRQIGTFAGTRVAPDGRVVSETEWAANEAKWLATPEDRAYVASLMGRVVEPGKFANWIAPPAMGINRQPIDFEYVRFN”, the “soluble on expression in E. coli” value was “not soluble”. In the case of “VSKDRLYFRQLLSGRDFAVGDMFATQMRNFAYLIGDRTTGDCVVVDPAYAAGDLLDALESDDMQLSGVLVTHHHPDHVGGSMMGFQLPGLAELLERASVPVHVNTHEALWVSRVTGIPVGDLITHEHGDKVSVGDIDIELLHTPGHTPGSQCFLLDGRLVAGDTLFLEGCGRTDFPGGDSDEMYRSLRQLAELPGDPTVFPGHWYSAEPSASLSEVKRSNYVYRPASLDQWRMLMGG”, the “soluble on expression in E. coli” value is reported as “not soluble”. With “GPGSGLTELQMRARRCPNRQARIDWSEGEVRSFYQALSQYGTDFSAIAVLFPSRSRRDIKRLYQREMRQKPKEVQAALNQKHPIDMAVFEVRYEAKKKEAQQPVKMKKLNSEELAFLDEIAGRQPSESAMHMKGEELEVPVPAATLGGVEEATAAPPSRLRKRPRGTHQADSEDGPESKRATKEIPPAADDDFDMEQESFFDMVVRHEREDNAPLDMLFAAQLEQGQQQHLAALEDSDFSFE” the “soluble on expression in E. coli” value was “soluble”. In the case of “MKLTKTLLTTALFGASIFSFQSTAWADTPEQQFQQGLTAYEQSDYQTAFKLWLPMAEQGYAQAQGGLGMMYERGLGVKQDDFKAVNWYRKAAEQGDADAQLNLGAMYAIGHGVKQDGVEAVKWFRKAAEQGNAKAQNGLGMMYRGRLGIKQDYFKAVKWYRKAAEQGYGGAQVMLGFSYLSGKGVQVNKSLAKEWFGKACDNGEQVGCEYYSKLNRGER”, the “soluble on expression in E. coli” value is reported as “not soluble”. For “HGDHMHNHDTKMDTMSKDMMSMEKIVVPVQQLDPQNGNKDVGTVEITESAYGLVFTPKLHDLAHGLHGFHIHEKPSCEPKEKDGKLVAGLGAGGHWDPKQTQKHGYPWSDDAHMGDLPALFVMHDGSATTPVLAPRLKKLAEVKGHSLMIHAGGDNHSDHPAPLGGGGPRMACGVIK”, the “soluble on expression in E. coli” value was “soluble”. For “MSSETRRKILEAARKAFSKYGYDGVSMEEIAREAGVKKALIYYYFPSKDKLFEEVWREALEELESHLFAVTEETNSYFAKIKKFLKSYVDFVLNKTVLNEIIEKEKSTVRFEEEKWSKLRERYESFIKRVEELIEEGKKQNYVYKDLDSRAAAELIVNSFGDVPKDKRLLQNIQEMILRGLLNVKTEEGR”, the “soluble on expression in E. coli” value was “not soluble”. With “MGETYDLLVIGGGINGVGIARDAAGRGLSVCLCEQDDLAAHTSSASTKLIHGGLRYLEQYEFALVGKALAEREVLLRLAPHIIWPLRFLLPHQPHLRPAWMIRAGLFLYDHLGGSKRSLPRSRRLSLRTHPVGQPLQESLRTGFVYSDAWVQDARLVVLNAMDAAKRGAQIHTRTRCVGAWRDAGFWYAELEGCDGRRRTVQSRALANAAGPWAVSFLDKVAAVPHQHALRLVKGSHIVVPKLFDHDHAYIFQQPDRRIVFAIPYEHDFTLIGTTDVDYEADPSAPKIDAAEVQYLCDAVNLYFQQQITPQDVVWNYSGVRPLLDDAEDNAAEVTRDYQLEVLTDGAPLLNVFGGKLTTYRKLAEEAVDRLTQALGARKPAWTARGEALPGGEQRDIASLLERVRTARPWLPAATAQRLVRNYGTCAEQLLGDAQDMAALGQHFGADLYQAEVDYLCAREWAQTADDILWRRSKLGLRVDAEARARLEAYLQTRPAAHANAQTHVVPALEHHHHHH” the “soluble on expression in E. coli” value was “not soluble”. In the case of “SLGRNWRSWRYAERADDLLISRGVLWREETVVPYGRMQLVEVTSGPVERHFGLASVQLHTAAAATDATIPGLDPAEAERLRDRLTELGEARSAG”, the “soluble on expression in E. coli” value is reported as “soluble”. For “MKTLSTMATLLALSLPVMAQECASDIMRTAPNLRYVYSTQGTVKDLHTGLTWMRCTFGKEWNAEQGRCTGQAQPLRWQAALQEVQAINHPGSRHRLHQFAGVKQWRMPNIKELSSLTEQACFAPAANETAFASGLVTEVGNYAAYLWSNTTRIEREEAWTWDAINGEIYAYSIHAHEMGLLLVADELEHHHHHH”, the “soluble on expression in E. coli” value was “soluble”. For “MVNDLTPHFEDVQAHYDLSDDFFRLFLDPTQTYSCAHFEREDMTLEEAQIAKIDLALGKLGLQPGMTLLDIGCGWGATMRRAIAQYDVNVVGLTLSKNQAAHVQKSFDEMDTPRDRRVLLAGWEQFNEPVDRIVSIGAFEHFGHDRHADFFARAHKILPPDGVLLLHTITGLTRQQMVDHGLPLTLWLARFLKFIATEIFPGGQPPTIEMVEEQSAKTGFTLTRRQSLQPHYARTLDLWAEALQEHKSEAIAIQSEEVYERYMKYLTGCAKLFRVGYIDVNQFTLAK”, the “soluble on expression in E. coli” value was “soluble”. In the case of “MSLALVAEKLSEQWRAELDSRGLDAAPMADWMTVCRRLSLALAGTGLSLEEIRSLQRLPEADRVETHRERLLNSERFHHYWAERTARYLVGADEGPFIFYRGRRFRSWLTEQYAKNTRYDELVRMLITAEGVWTDRPEVNFHTVTFDSGDNAPDPIRLAARTTRAFLGVRIDCLQCHDDFLGNVSLGDASWIMCGVGDATMQAAAEGDAKYVLREGTQEDFHSLAAFFTAATSEGVQGLKDKRANYEYQYLYADETVPVEPNVPFLRELLPPRPENRQDDSSDDDSTDTTDESASDEPSDAPEPLELPRYLSDRERLAYWLTHTENKPAARAAVTRVWTLLFGQPPAIETDYGFQVGEVDNLPLDSPPSPLIETLTEAFIESDFNIRKLIRCITDSPAFRVSSRADFDVTEQHELAMAVFPVTHLRSEQVAGAAIQAGRIKTINRDSSFLVQLQQFGSLNDFLKRYGDLGEDEFTQQPVTITQRLVMLNGKLINETASPNPILNASSHIEMFAKDDEDVVRTLYLTVLNREPSERELEHFVKRLTAESREQNDPPTSRKQEITDLTWILLNSSEFAWNHEGHHHHHH”, the “soluble on expression in E. coli” value is reported as “not soluble”. In the case of “MTIHLISFASILHKQASLRNSHEAILSELEKYYTVKLIDYQDMDKLGSDDFKIIFIATGGVERLVIQHFERLPRPAILLADGMQNSLAAALEISTWLRGRGMKSEILHGELPSIIQRVHILYNNFRAQRSLFGKRIGVIGTPSSWLVASNVDYLLAKRRWGIEYIDIPLERVYEHFKQITDDQVGASCAAVASQALACREGTPEDLIKAMRLYRAIKRICEEEKLEALTLSCFKLIDQIDTTGCLALSLLNDDGIMAGCEGDLQSIFTLLAVKALTGKEGFMANPSTINTRTNELILAHCTIGLKQTERYIIRNHFETEKGIAIQGLLPTGDVTIVKCGGECLDEYYLSTGTLTENTNYINMCRTQVRIRMNTPADYFLKNPLGNHHIMIHGNYEEALNEFLLSNACKRTE”, the “soluble on expression in E. coli” value is reported as “not soluble”. For “MSLKILIIEDDLALARSISHNLHDLGHFCEIISSISEENKEPYDVILVSSKVCTQGRCEHFVRYNSKQIIIMMASHVNEDGVNKPIQAGARDYILKPFKMDELLRKIQYHKAYQEMTARLGFYENYLDFIHAELPLPKDFSYRPPFIIHTPSQELANAYLLQYAKERQMDFSFFSLKDTTWKELYKNKDKLERPFYIMHLEELKKDEQLKLLELARSCPIVLSYTHKEPLEFPKIVSIECGNKPLSLFNNHTTFLSIQEYEKEAIRHFSSTCTDTELANKLGISRKSLWEKRRKYNLPREGHHHHHH”, the “soluble on expression in E. coli” value was “soluble”. For “MGSDKIHHHHHHMSLSRLSIDAFRNIDSAQLAPGAGLNLIYGHNGSGKTSILEAIYFLGMGRSFRSHLSQRVIQNDADCLTLFAVAEGQAGDSRIGLRRHRSGDTEVKIDGEKVKRLSQLAEALPIQVITPESFSLLFEGPSARRQFIDWGAFHASKQFHLAWMNTRRILKQRNQLLRDGASYEHIAFWDKELIRYALEVTAIRNDYVGSLNGVLKGIIGEFLPDVDIRVSFTRGWDSKTDFSELLQSQYARDLAIGHTVSGPHKADLRLRVGNLPAQDALSRGQLKLLVCALRIAQGKLLKQQIDKHSIYLVDDLPSELDAKHRQLLLKELIDTGAQLFVTAIEPSAIVDSLPVPPDRMFHVQAGRVTQTK”, the “soluble on expression in E. coli” value was “not soluble”. With “MSLGSGHMIGVDVGETRVRVELFDLSLAELARTERPLAHKGRQAYDVGVIVGHIRDGVAEVLAAAGITAGELLGVGIGVPGIVERSGEGGAVVHGQTIGWDAVPLEHMLRLSGQLPEHVPYFIDNGAKTLGQAEMWFGAGRGAHNAVVVLFGSGVGACVVTDEVEHGRAVEWGHLTVRVQGRRCRCGALGCLEAYAGAEALLARWQEAGGQPPYDTDEETALTAMLAAAYPEDGRAPDPVAAAVLAETAEYLGAGLSDLINLFQPERILVGGWAGLQLGSRFLESVRTHALAYALRYPAGRVGIELGRLGPDAVTVGAAILPLADFFAHGGRRAEGHHHHHH” the “soluble on expression in E. coli” value was “soluble”.
